B1: SC16 with the N-terminal signal sequence removed (18Thr-114Leu of the hyd1 gene of S. commune) (natural protein, Schizophyllum commune, UniProt D8QCG9 18-114, looked up)
chain: TAVPRDVNGGTPPKSCSSGPVYCCNKTEDHLDKGTTALLGLLNIKIGDLKDLVGLNCSPLSVIGVGGNSCSAQTVCCTNTYQHGLVNVGCTPINIGL
notes: Expressed as H6-GB1-SC16 with a thrombin site; also called hydrophobin SC16; not shown: His6, N-terminal, cleaved; B1 domain of protein G (GB1), N-terminal, cleaved
B2: SC16 with 13 residues from the N-terminal tail removed (residues 31Lys-114Leu of SC16) (domain or fragment, Schizophyllum commune, UniProt D8QCG9 31-114, looked up)
chain: KSCSSGPVYCCNKTEDHLDKGTTALLGLLNIKIGDLKDLVGLNCSPLSVIGVGGNSCSAQTVCCTNTYQHGLVNVGCTPINIGL
notes: class IB hydrophobin SC16, product of the hyd1 gene of Schizophyllum commune, NCBI ID EFI94929, residues 31Lys-114Leu; Expressed as H6-GB1-SC16ΔN with a thrombin site; also called SC16ΔN; not shown: His6, N-terminal, cleaved; B1 domain of protein G (GB1), N-terminal, cleaved

Target: the molecule itself
Assay: thioflavin T fluorescence; self-assembly during agitation (air:water interface), 50 μg/mL protein, 20 μM ThT, multicomponent buffer pH 8.5 with 1 M NaCl (SC16ΔN also at pH 5.5-8.5 with 10 mM-1 M NaCl), 6 replicates

| Protein | binding result |
| --- | --- |
| B1 | binds |
| B2 | binds |

Reference: paper PMC8748815, “The N-terminal tail of the hydrophobin SC16 is not required for rodlet formation” (Scientific Reports, 2022)
